# Reference: paper PMC10786891, “Massively parallel profiling of RNA-targeting CRISPR-Cas13d”
# T1: EsCas13d, nuclease-dead (Eubacterium siraeum, UniProt B0MS50, R295A;H300A;R849A;H854A)
# T1 sequence: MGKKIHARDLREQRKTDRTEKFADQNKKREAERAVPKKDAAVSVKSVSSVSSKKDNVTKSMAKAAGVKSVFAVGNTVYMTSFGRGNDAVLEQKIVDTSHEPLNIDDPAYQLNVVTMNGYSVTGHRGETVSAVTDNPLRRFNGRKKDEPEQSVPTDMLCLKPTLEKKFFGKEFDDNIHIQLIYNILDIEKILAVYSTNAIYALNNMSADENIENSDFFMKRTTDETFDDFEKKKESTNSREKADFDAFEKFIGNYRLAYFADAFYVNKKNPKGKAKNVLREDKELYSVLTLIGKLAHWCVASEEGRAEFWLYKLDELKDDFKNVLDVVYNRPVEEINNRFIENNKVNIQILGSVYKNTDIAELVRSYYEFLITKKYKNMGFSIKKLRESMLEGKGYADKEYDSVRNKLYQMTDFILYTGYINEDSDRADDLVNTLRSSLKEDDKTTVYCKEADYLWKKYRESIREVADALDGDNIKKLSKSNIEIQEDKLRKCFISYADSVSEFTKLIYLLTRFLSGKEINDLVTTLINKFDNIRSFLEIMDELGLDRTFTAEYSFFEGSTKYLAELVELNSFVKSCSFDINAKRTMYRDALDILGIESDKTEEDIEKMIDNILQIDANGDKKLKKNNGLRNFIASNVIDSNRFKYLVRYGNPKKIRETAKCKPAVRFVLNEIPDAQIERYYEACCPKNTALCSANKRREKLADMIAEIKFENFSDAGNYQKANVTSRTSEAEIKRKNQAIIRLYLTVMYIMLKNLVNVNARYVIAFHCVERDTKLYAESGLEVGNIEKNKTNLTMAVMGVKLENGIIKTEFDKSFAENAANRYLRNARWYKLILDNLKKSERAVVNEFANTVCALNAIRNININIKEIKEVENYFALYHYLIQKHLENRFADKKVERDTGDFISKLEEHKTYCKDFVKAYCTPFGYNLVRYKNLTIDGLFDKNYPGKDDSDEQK
# Molecular target: T1, EsCas13d, nuclease-dead
# Experiment: crRNA (strand 1, pre-loaded); Mg2+; 40 mM Tris-HCl pH 7.5, 150 mM NaCl, 6 mM MgCl2, 1 mM DTT, 0.1% Tween-20, 0.2 mg/ml BSA; 25 C; 10 min per concentration, then washed
# Conditions: tags: His6-TwinStrep-SUMO cleaved; N-terminal SNAP kept (SNAP-Surface 488); label: 3' end held by stalled T7 RNA polymerase
row,Binder,Kd
1,"target 3 U8C,U22C (mixed) RNA 1: CACCCGUGCAAAAUUGCAGGGGUCUAAAACGACCUGAAUAUUUCAGAUCAAA RNA 2: GGGAAUGGAUCCACAUCUACGAAUUCGUUCUUGAUCUGAAAUACUCAGGUCUGCAGAUCGGAAGAGCACACGU",46 ± 8.5 nM
2,"target 3 insC 3' of 8,insU 3' of 5 (mixed) RNA 1: CACCCGUGCAAAAUUGCAGGGGUCUAAAACGACCUGAAUAUUUCAGAUCAAA RNA 2: GGGAAUGGAUCCACAUCUACGAAUUCGUUUUUGAUCUGAAAUAUCUCAUGGUCUGCAGAUCGGAAGAGCACACGU",79.5 ± 15 nM
3,"target 3 insG 3' of 9,insG 3' of 8 (mixed) RNA 1: CACCCGUGCAAAAUUGCAGGGGUCUAAAACGACCUGAAUAUUUCAGAUCAAA RNA 2: GGGAAUGGAUCCACAUCUACGAAUUCGUUUUUGAUCUGAAAUAGUGUCAGGUCUGCAGAUCGGAAGAGCACACGU",57 ± 6 nM
4,"target 3 insG 3' of 8,insU 3' of 4 (mixed) RNA 1: CACCCGUGCAAAAUUGCAGGGGUCUAAAACGACCUGAAUAUUUCAGAUCAAA RNA 2: GGGAAUGGAUCCACAUCUACGAAUUCGUUUUUGAUCUGAAAUAUGUCAGUGUCUGCAGAUCGGAAGAGCACACGU",21.2 ± 4.45 nM
5,"target 3 A11C,G14A (mixed) RNA 1: CACCCGUGCAAAAUUGCAGGGGUCUAAAACGACCUGAAUAUUUCAGAUCAAA RNA 2: GGGAAUGGAUCCACAUCUACGAAUUCGUUUUUGAUCUAAACUAUUCAGGUCUGCAGAUCGGAAGAGCACACGU",51 ± 10 nM
6,"target 3 U2A,A5U (mixed) RNA 1: CACCCGUGCAAAAUUGCAGGGGUCUAAAACGACCUGAAUAUUUCAGAUCAAA RNA 2: GGGAAUGGAUCCACAUCUACGAAUUCGUUUUUGAUCUGAAAUAUUCUGGACUGCAGAUCGGAAGAGCACACGU",7.35 ± 1.15 nM
7,"target 3 insG 3' of 6,insA 3' of 1 (mixed) RNA 1: CACCCGUGCAAAAUUGCAGGGGUCUAAAACGACCUGAAUAUUUCAGAUCAAA RNA 2: GGGAAUGGAUCCACAUCUACGAAUUCGUUUUUGAUCUGAAAUAUUCGAGGUCAUGCAGAUCGGAAGAGCACACGU",76 ± 34 nM
8,"target 3 G19C,U20G (mixed) RNA 1: CACCCGUGCAAAAUUGCAGGGGUCUAAAACGACCUGAAUAUUUCAGAUCAAA RNA 2: GGGAAUGGAUCCACAUCUACGAAUUCGUUUUGCAUCUGAAAUAUUCAGGUCUGCAGAUCGGAAGAGCACACGU",~49 nM
9,"target 3 insU 3' of 4,insU 3' of 3 (mixed) RNA 1: CACCCGUGCAAAAUUGCAGGGGUCUAAAACGACCUGAAUAUUUCAGAUCAAA RNA 2: GGGAAUGGAUCCACAUCUACGAAUUCGUUUUUGAUCUGAAAUAUUCAGUGUUCUGCAGAUCGGAAGAGCACACGU",15.2 ± 1.8 nM
10,"target 3 U2G,G3A (mixed) RNA 1: CACCCGUGCAAAAUUGCAGGGGUCUAAAACGACCUGAAUAUUUCAGAUCAAA RNA 2: GGGAAUGGAUCCACAUCUACGAAUUCGUUUUUGAUCUGAAAUAUUCAGAGCUGCAGAUCGGAAGAGCACACGU",44 ± 6.5 nM
11,"target 3 U2A,C6G (mixed) RNA 1: CACCCGUGCAAAAUUGCAGGGGUCUAAAACGACCUGAAUAUUUCAGAUCAAA RNA 2: GGGAAUGGAUCCACAUCUACGAAUUCGUUUUUGAUCUGAAAUAUUGAGGACUGCAGAUCGGAAGAGCACACGU",37 ± 5 nM
12,"target 3 insG 3' of 6,insU 3' of 1 (mixed) RNA 1: CACCCGUGCAAAAUUGCAGGGGUCUAAAACGACCUGAAUAUUUCAGAUCAAA RNA 2: GGGAAUGGAUCCACAUCUACGAAUUCGUUUUUGAUCUGAAAUAUUCGAGGUCUUGCAGAUCGGAAGAGCACACGU",56.5 ± 15 nM
13,"target 3 insA 3' of 4,insU 3' of 3 (mixed) RNA 1: CACCCGUGCAAAAUUGCAGGGGUCUAAAACGACCUGAAUAUUUCAGAUCAAA RNA 2: GGGAAUGGAUCCACAUCUACGAAUUCGUUUUUGAUCUGAAAUAUUCAGAGUUCUGCAGAUCGGAAGAGCACACGU",72 ± 18.5 nM
14,"target 3 insU 3' of 13,insG 3' of 2 (mixed) RNA 1: CACCCGUGCAAAAUUGCAGGGGUCUAAAACGACCUGAAUAUUUCAGAUCAAA RNA 2: GGGAAUGGAUCCACAUCUACGAAUUCGUUUUUGAUCUGAUAAUAUUCAGGUGCUGCAGAUCGGAAGAGCACACGU",35.5 ± 7 nM
15,target 3 U2A (mixed) RNA 1: CACCCGUGCAAAAUUGCAGGGGUCUAAAACGACCUGAAUAUUUCAGAUCAAA RNA 2: GGGAAUGGAUCCACAUCUACGAAUUCGUUUUUGAUCUGAAAUAUUCAGGACUGCAGAUCGGAAGAGCACACGU,24.3 ± 1.8 nM
16,"target 3 insG 3' of 6,insG 3' of 1 (mixed) RNA 1: CACCCGUGCAAAAUUGCAGGGGUCUAAAACGACCUGAAUAUUUCAGAUCAAA RNA 2: GGGAAUGGAUCCACAUCUACGAAUUCGUUUUUGAUCUGAAAUAUUCGAGGUCGUGCAGAUCGGAAGAGCACACGU",25 ± 10.5 nM
17,"target 3 insU 3' of 5,insU 3' of 5 (mixed) RNA 1: CACCCGUGCAAAAUUGCAGGGGUCUAAAACGACCUGAAUAUUUCAGAUCAAA RNA 2: GGGAAUGGAUCCACAUCUACGAAUUCGUUUUUGAUCUGAAAUAUUCAUUGGUCUGCAGAUCGGAAGAGCACACGU",3.87 ± 0.32 nM
18,"target 3 insG 3' of 6,insC 3' of 2 (mixed) RNA 1: CACCCGUGCAAAAUUGCAGGGGUCUAAAACGACCUGAAUAUUUCAGAUCAAA RNA 2: GGGAAUGGAUCCACAUCUACGAAUUCGUUUUUGAUCUGAAAUAUUCGAGGUCCUGCAGAUCGGAAGAGCACACGU",74 ± 27 nM
19,"target 3 insA 3' of 7,insC 3' of 5 (mixed) RNA 1: CACCCGUGCAAAAUUGCAGGGGUCUAAAACGACCUGAAUAUUUCAGAUCAAA RNA 2: GGGAAUGGAUCCACAUCUACGAAUUCGUUUUUGAUCUGAAAUAUUACACGGUCUGCAGAUCGGAAGAGCACACGU",28.2 ± 1.85 nM
20,"target 3 insU 3' of 16,insC 3' of 4 (mixed) RNA 1: CACCCGUGCAAAAUUGCAGGGGUCUAAAACGACCUGAAUAUUUCAGAUCAAA RNA 2: GGGAAUGGAUCCACAUCUACGAAUUCGUUUUUGAUCUUGAAAUAUUCAGCGUCUGCAGAUCGGAAGAGCACACGU",84.5 ± 27 nM
21,target 3 complement block 2-6 (mixed) RNA 1: CACCCGUGCAAAAUUGCAGGGGUCUAAAACGACCUGAAUAUUUCAGAUCAAA RNA 2: GGGAAUGGAUCCACAUCUACGAAUUCGUUUUUGAUCUGAAAUAUUGUCCACUGCAGAUCGGAAGAGCACACGU,58.5 ± 9 nM
22,target 3 complement block 1-6 (mixed) RNA 1: CACCCGUGCAAAAUUGCAGGGGUCUAAAACGACCUGAAUAUUUCAGAUCAAA RNA 2: GGGAAUGGAUCCACAUCUACGAAUUCGUUUUUGAUCUGAAAUAUUGUCCAGUGCAGAUCGGAAGAGCACACGU,28.5 ± 4.5 nM
23,"target 3 G4A,A11C (mixed) RNA 1: CACCCGUGCAAAAUUGCAGGGGUCUAAAACGACCUGAAUAUUUCAGAUCAAA RNA 2: GGGAAUGGAUCCACAUCUACGAAUUCGUUUUUGAUCUGAACUAUUCAAGUCUGCAGAUCGGAAGAGCACACGU",48.5 ± 11.5 nM
24,"target 3 del6,del22 (mixed) RNA 1: CACCCGUGCAAAAUUGCAGGGGUCUAAAACGACCUGAAUAUUUCAGAUCAAA RNA 2: GGGAAUGGAUCCACAUCUACGAAUUCGUUUUGAUCUGAAAUAUUAGGUCUGCAGAUCGGAAGAGCACACGU",19.4 ± 1.9 nM
25,target 3 insU 3' of 6 (mixed) RNA 1: CACCCGUGCAAAAUUGCAGGGGUCUAAAACGACCUGAAUAUUUCAGAUCAAA RNA 2: GGGAAUGGAUCCACAUCUACGAAUUCGUUUUUGAUCUGAAAUAUUCUAGGUCUGCAGAUCGGAAGAGCACACGU,17.3 ± 1.35 nM
26,"target 1 C2G,C7G (mixed) RNA 1: CACCCGUGCAAAAAUGCAGGGGUCUAAAACUGAGCGGAUAACCUCUCUAUGG RNA 2: GGGAAUGGAUCCACAUCUACGAAUUCGUACCAUAGAGAGGUUAUGCGCUGACCGAGAUCGGAAGAGCACACGU",8.9 ± 0.4 nM
27,"target 1 insA 3' of 15,insC 3' of 5 (mixed) RNA 1: CACCCGUGCAAAAAUGCAGGGGUCUAAAACUGAGCGGAUAACCUCUCUAUGG RNA 2: GGGAAUGGAUCCACAUCUACGAAUUCGUACCAUAGAGAAGGUUAUCCGCCUCACCGAGAUCGGAAGAGCACACGU",16.7 ± 1.4 nM
28,"target 1 insU 3' of 20,insC 3' of 20 (mixed) RNA 1: CACCCGUGCAAAAAUGCAGGGGUCUAAAACUGAGCGGAUAACCUCUCUAUGG RNA 2: GGGAAUGGAUCCACAUCUACGAAUUCGUACCAUCUAGAGAGGUUAUCCGCUCACCGAGAUCGGAAGAGCACACGU",75 ± 13 nM
